From publication PMC10359629, “Thumb-domain dynamics modulate the functional repertoire of DNA-Polymerase IV (DinB)”

Experiments:
DinBΔPAD = biological target: T1, DinBΔPAD (Escherichia coli, UniProt Q47155 1-230); test: NMR titration; BLI: 50 mM KPi pH 6.5, 50 mM NaCl, 10 mM MgSO4, 1 mM TCEP, 303 K; NMR titrations: NMR buffer (composition in Supplementary Table S2, not fully given), 298 K; conditions: protein: recombinant; tags: N-terminal His6 (stop codon at 231; tag inferred from parent plasmid); blunt; each strand also partly self-complementary (called self-complementary in text)
T1 sequence: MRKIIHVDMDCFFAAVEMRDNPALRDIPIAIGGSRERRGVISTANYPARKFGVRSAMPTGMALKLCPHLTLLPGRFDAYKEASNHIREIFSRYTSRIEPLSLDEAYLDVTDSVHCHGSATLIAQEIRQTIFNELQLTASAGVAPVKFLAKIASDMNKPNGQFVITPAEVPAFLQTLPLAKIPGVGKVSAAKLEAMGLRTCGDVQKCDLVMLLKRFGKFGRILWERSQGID

DinB (DNA polymerase IV) = biological target: T2, DinB (DNA polymerase IV) (Escherichia coli, UniProt Q47155 1-351); test: as above; conditions: protein: recombinant; tags: N-terminal His6; blunt; each strand also partly self-complementary (called self-complementary in text)
T2 sequence: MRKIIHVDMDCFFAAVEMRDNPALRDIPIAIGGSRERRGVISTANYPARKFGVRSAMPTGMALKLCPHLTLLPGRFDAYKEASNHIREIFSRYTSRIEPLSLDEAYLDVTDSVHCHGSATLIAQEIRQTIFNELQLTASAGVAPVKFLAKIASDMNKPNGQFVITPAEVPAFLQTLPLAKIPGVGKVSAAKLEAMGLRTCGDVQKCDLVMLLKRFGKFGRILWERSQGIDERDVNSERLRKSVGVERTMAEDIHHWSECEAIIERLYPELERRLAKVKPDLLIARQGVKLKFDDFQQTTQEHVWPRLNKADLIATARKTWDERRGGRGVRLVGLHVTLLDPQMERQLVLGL

B1: 18mer dsDNA (dsDNA)
DNA 1: TCTAGGGTCCTAGGACCC
DNA 2: GGGTCCTAGGACCCTAGA
binding result (DinBΔPAD): binds
binding result (DinB (DNA polymerase IV)): binds
